Laboratory results from patent publication US20160185850A1 (ESBATECH AN ALCON BIOMEDICAL RESEARCH UNIT, published 2016).
Changes are numbered by the printed parent chain. Where two headings read alike, the source gives them in different places. One block for each binder: values may come before it.

Assays:
[1] = molecular target: T1, recombinant human TNFα (human, UniProt P01375 77-233); assay: cell-based or functional assay
[2] = molecular target: T1, recombinant human TNFα; assay: cell-based or functional assay; remark: listed apart in the source
[3] = molecular target: T1, recombinant human TNFα; assay: cell-based or functional assay; remark: listed apart in the source
[4] = molecular target: T1, recombinant human TNFα; assay: ELISA dilution series on TNFα after 3 days at 37°C in pig anterior chamber fluid (column 'anterior chamber fluid')
[5] = molecular target: T1, recombinant human TNFα; assay: ELISA dilution series on TNFα after 3 days at 37°C in human urine (column 'urine')
[6] = molecular target: T1, recombinant human TNFα; assay: ELISA dilution series on TNFα after 3 days at 37°C in pig vitreous body fluid (column 'vitreous body fluid')
[7] = molecular target: T1, recombinant human TNFα; assay: cell-based or functional assay; remark: listed apart in the source
[8] = molecular target: T1, recombinant human TNFα; assay: ELISA on recombinant human TNFα
[9] = molecular target: T1, recombinant human TNFα; assay: surface plasmon resonance (BIACore)
[10] = molecular target: T1, recombinant human TNFα; assay: ELISA dilution series on TNFα after 3 days at 37°C in assay buffer TBSTM (positive control)
[11] = molecular target: T1, recombinant human TNFα; assay: ELISA dilution series on TNFα after 3 days at 37°C in human serum (column 'serum')
[12] = molecular target: T1, recombinant human TNFα; assay: ELISA on recombinant human TNFα; remark: listed apart in the source

T1 sequence (P01375 77-233 limits assumed): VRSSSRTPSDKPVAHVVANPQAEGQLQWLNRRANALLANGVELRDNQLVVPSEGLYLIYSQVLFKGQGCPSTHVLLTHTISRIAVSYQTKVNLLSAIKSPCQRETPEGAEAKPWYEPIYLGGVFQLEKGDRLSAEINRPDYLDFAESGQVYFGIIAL

B1: TB-wt (scFv)
scFv: DIVMTQTPKFLLVSAGDRVTITCTASQSVSNDVVWYQQKPGQSPKMLMYSAFNRYTGVPDRFTGRGYGTDFTFTISSVQAEDLAVYFCQQDYNSPRTFGGGTKLEIKRGGGGSGGGGSGGGGSGGGGSQIQLVQSGPELKKPGETVKISCKASGYTFTHYGMNWVKQAPGKGLKWMGWINTYTGEPTYADDFKEHFAFSLETSASTVFLQINNLKNEDTATYFCARERGDAMDYWGQGTSVTVSS
- IC50, inhibition of human TNFα-induced cytotoxicity in mouse L929 fibroblasts [1]: 0.161 µg/mL

B2: TB-A Fab antibody (Fab, V domains shown)
VH: QVQLVQSGAEVKKPGASVKVSCTASGYTFTHYGMNWVRQAPGKGLEWMGWINTYTGEPTYADKFKDRFTFSLETSASTVYMELTSLTSDDTAVYYCARERGDAMDYWGQGTLVTVSS
VL: DIVMTQSPSSLSASVGDRVTLTCTASQSVSNDVVWYQQRPGKAPKLLIYSAFNRYTGVPSRFSGRGYGTDFTLTISSLQPEDVAVYYCQQDYNSPRTFGQGTKLEVKR
- IC50 in the L929 assay, Fab format relative to scFv format of TB-A [2]: ~2 fold (IC50 Fab / IC50 scFv)
- IC50, inhibition of human TNFα-induced cytotoxicity in mouse L929 fibroblasts [3]: 0.0659 µg/mL

B3: TB-A (scFv)
scFv: DIVMTQSPSSLSASVGDRVTLTCTASQSVSNDVVWYQQRPGKAPKLLIYSAFNRYTGVPSRFSGRGYGTDFTLTISSLQPEDVAVYYCQQDYNSPRTFGQGTKLEVKRGGGGSGGGGSGGGGSGGGGSQVQLVQSGAEVKKPGASVKVSCTASGYTFTHYGMNWVRQAPGKGLEWMGWINTYTGEPTYADKFKDRFTFSLETSASTVYMELTSLTSDDTAVYYCARERGDAMDYWGQGTLVTVSS
notes: also called TB-A scFv; TB-A scFv antibody
- Kd [4]: 2.97 nM
- Kd [5]: 4.14 nM
- Kd [6]: 3.18 nM
- Relative potency: EC50X/EC50TB-A, KYM-1 cells [7]: 1 ratio EC50X/EC50TB-A
- Relative potency: EC50X/EC50TB-A, L929 cells [7]: 1 ratio EC50X/EC50TB-A
- IC50, inhibition of human TNFα-induced cytotoxicity in mouse L929 fibroblasts [1]: 0.0144 µg/mL
- EC50 (read off the curve) [8]: ~3 nM
- IC50, inhibition of human TNFα-induced cytotoxicity in mouse L929 fibroblasts [3]: 0.0297 µg/mL
- Kd [9]: 0.8 nM
- koff [9]: 0.00044 s⁻¹
- kon [9]: 500000 M⁻¹ s⁻¹
- Kd [10]: 3.39 nM
- Kd [11]: 3.62 nM

Further lines, results first:

- EC50 (read off the curve) [8]: ~700 nM
B4: TB-BA (scFv)
scFv (VL of TB-B - (GGGGS)4 linker - VH of TB-A): B3 scFv with M4L, L46R, R65S, Y67S, D70E
notes: Domain-shuffled variant: VL domain of TB-B with VH domain of TB-A

- binding result [12]: binds
B5: TB-A L_R65S (scFv)
scFv: B3 scFv with R65S
notes: also called TB-A L65

- EC50 (read off the curve) [8]: ~3 nM
B6: TB-AB (scFv)
scFv (VL of TB-A - (GGGGS)4 linker - VH of TB-B): B3 scFv with T156S, K171Q, F196V, F198L, S199T, L200R, E201D, A204I, S205G
notes: Domain-shuffled variant: VL domain of TB-A with VH domain of TB-B
